Source: doi:10.1101/2022.07.04.498665 (bioRxiv, 2022)
“And” between values parts separate entries of the source, which are not always exact repeats. Identical values can stand only once.

What was measured:
SEC = biological target: the molecule itself; assay: SEC
SAXS = biological target: the molecule itself; assay: SAXS

B1: Mu8.1 (natural protein)
chain: GENSDNLTHCRLFEFRLCLLECMSLTLDHCYARCTTVITQIHGSDTNRFDCTIFKTCYYRCYVLGKTEDHCWKGTATSVTGDVGDLEFC
Question: Which results are given for B1?
Answer: stoichiometry N (SEC): 2; stoichiometry N (SAXS): 4 and 6
